Numbering of substitutions follows the chain as printed.
B1: Sec16 central conserved domain (residues 984–1421) (domain or fragment, S. cerevisiae, UniProt P48415 984-1421, looked up)
chain: DNEALLRRQFPIFHWSAANKVVYAVPPIPDQSQYMISSSIVQEIKVTPIDQIIKPNDMLKSFPGPLGSAKLKKKDLTKWMETTIKSISENESSTDMTIWQLLEMKLNDKVNWKNISKLLYNSDELLMYLSQPFPNGDMIPNAYRLDINCQMRVLAFLQTGNHDEALRLALSKRDYAIALLVGSLMGKDRWSEVIQKYLYEGFTAGPNDQKELAHFLLLIFQVFVGNSKMAIKSFYTNNETSQWASENWKSIVAAVLINIPENNEDPLLIPPVVLEFLIEFGIFLTKKGLTAAASTLFIIGNVPLSNEPVMADSDVIFESIGNMNTFESILWDEIYEYIFSYDPKFKGFSSILPQKIYHASLLQEQGLNSLGTKYTDYLSSSVRKLPKKDILTINLTRELSEVASRLSESNTGWLAKPKLSSVWGQLDKSFNKYIGGDD
B2: Sec31 (residues 370–746) (domain or fragment, yeast, UniProt P38968 370-746, looked up)
chain: HLQAPTWYGEPSPAAHWAFGGKLVQITPDGKGVSITNPKISGLESNTTLSEALKTKDFKPLINQRLVKVIDDVNEEDWNLLEKLSMDGTEEFLKEALAFDNDESDAQDDANNEKEDDGEEFFQQIETNFQPEGDFSLSGNIEQTISKNLVSGNIKSAVKNSLENDLLMEAMVIALDSNNERLKESVKNAYFAKYGSKSSLSRILYSISKREVDDLVENLDVSQWKFISKAIQNLYPNDIAQRNEMLIKLGDRLKENGHRQDSLTLYLAAGSLDKVASIWLSEFPDLEDKLKKDNKTIYEAHSECLTEFIERFTVFSNFINGSSTINNEQLIAKFLEFINLTTSTGNFELATEFLNSLPSDNEEVKTEKARVLIASGK
B3: Sec13 (natural protein, S. cerevisiae, UniProt Q04491 1-297, looked up)
chain: MVVIANAHNELIHDAVLDYYGKRLATCSSDKTIKIFEVEGETHKLIDTLTGHEGPVWRVDWAHPKFGTILASCSYDGKVLIWKEENGRWSQIAVHAVHSASVNSVQWAPHEYGPLLLVASSDGKVSVVEFKENGTTSPIIIDAHAIGVNSASWAPATIEEDGEHNGTKESRKFVTGGADNLVKIWKYNSDAQTYVLESTLEGHSDWVRDVAWSPTVLLRSYLASVSQDRTCIIWTQDNEQGPWKKTLLKEEKFPDVLWRASWSLSGNVLALSGGDNKVTLWKENLEGKWEPAGEVHQ
B4: Sec31ΔL (residues 370–746, deletion of residues 474–507) (domain or fragment, yeast, UniProt P38968 370-746, looked up)
chain: HLQAPTWYGEPSPAAHWAFGGKLVQITPDGKGVSITNPKISGLESNTTLSEALKTKDFKPLINQRLVKVIDDVNEEDWNLLEKLSMDGTEEFLKEALAFDNDESGNIEQTISKNLVSGNIKSAVKNSLENDLLMEAMVIALDSNNERLKESVKNAYFAKYGSKSSLSRILYSISKREVDDLVENLDVSQWKFISKAIQNLYPNDIAQRNEMLIKLGDRLKENGHRQDSLTLYLAAGSLDKVASIWLSEFPDLEDKLKKDNKTIYEAHSECLTEFIERFTVFSNFINGSSTINNEQLIAKFLEFINLTTSTGNFELATEFLNSLPSDNEEVKTEKARVLIASGK

Tests used:
[1] = target: the molecule itself; assay: AUC
[2] = target: the molecule itself; assay: SEC
[3] = target: B1; assay: AUC
[4] = target: T1, Sec31EE (residues 370–746, M540E and L544E) (yeast, UniProt P38968 370-746, M540E | L544E); assay: SEC
T1 sequence (looked up): B2 chain with M171E, L175E

[5] = target: the molecule itself; assay: crystal structure

With B1 the “stoichiometry N” value [1] was 2 copies of Sec16 in the tetramer.

B2: binds [2].

For B3, the “stoichiometry N” value [3] was 1 Sec13 per Sec16 (printed 2:2) and the “stoichiometry N” value [4] was 1 Sec13 per Sec31EE (printed 1:1).

B4: binds [5].
